# According to the supplement of paper PMC9112550, “Optimization of the antimicrobial peptide Bac7 by deep mutational scanning” (BMC Biology, 2022):
# System: Escherichia coli TOP10
# Test: shrunken log2 fold change of peptide-encoding DNA abundance (4.5 h post-induction vs induction); higher = less antimicrobial activity (less host growth inhibition)
# Conditions: time post-induction: 4.5 h; library: site-saturation at positions 5, 18, 19, 20
# 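Note: peptides expressed intracellularly from a pBAD plasmid library in pooled LB shake-flask culture, induced with 0.3% L-arabinose, DNA abundance read by NGS, three biological replicates, DESeq2 with apeglm shrinkage.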
row,Sequence,shrunken log2 fold change
1,RRIRHRPPRLPRPRPRPLAWPRP,0.198
2,RRIRMRPPRLPRPRPRPDNCPRP,0.00157
3,RRIRNRPPRLPRPRPRPYIYPRP,-0.514
4,RRIRHRPPRLPRPRPRPAQPPRP,0.1
5,RRIRCRPPRLPRPRPRPIDAPRP,-0.268
6,RRIRLRPPRLPRPRPRPNTHPRP,-0.473
7,RRIRWRPPRLPRPRPRPTPCPRP,0.212
8,RRIRWRPPRLPRPRPRPAQCPRP,-0.00191
9,RRIRARPPRLPRPRPRPNDPPRP,0.104
10,RRIRLRPPRLPRPRPRPWFIPRP,-0.738
11,RRIRQRPPRLPRPRPRPWSQPRP,0.0535
12,RRIRWRPPRLPRPRPRPIMSPRP,-0.161
13,RRIRKRPPRLPRPRPRPIHNPRP,-0.0348
14,RRIRARPPRLPRPRPRPPSGPRP,0.597
15,RRIRHRPPRLPRPRPRPFCNPRP,0.00929
16,RRIRKRPPRLPRPRPRPGKWPRP,0.184
17,RRIRNRPPRLPRPRPRPRHGPRP,-0.0314
18,RRIRTRPPRLPRPRPRPRQQPRP,0.349
19,RRIRGRPPRLPRPRPRPLDCPRP,0.141
20,RRIRERPPRLPRPRPRPGEFPRP,0.033
21,RRIRERPPRLPRPRPRPMDMPRP,-0.189
22,RRIRDRPPRLPRPRPRPEVLPRP,1.14
23,RRIRLRPPRLPRPRPRPFHNPRP,-0.336
24,RRIRFRPPRLPRPRPRPIKCPRP,-0.229
25,RRIRDRPPRLPRPRPRPSRRPRP,0.146

row,Sequence,shrunken log2 fold change
1,RRIRRRPPRLPRPRPRPEDWPRP,0.791
2,RRIRNRPPRLPRPRPRPEGHPRP,0.00677
3,RRIRPRPPRLPRPRPRPSHSPRP,-0.368
4,RRIRARPPRLPRPRPRPGEEPRP,0.999
5,RRIRQRPPRLPRPRPRPGKPPRP,0.12
6,RRIRERPPRLPRPRPRPIQHPRP,-0.529
7,RRIRYRPPRLPRPRPRPNNQPRP,-1.05
8,RRIRCRPPRLPRPRPRPQWDPRP,-0.0642
9,RRIRVRPPRLPRPRPRPDLEPRP,-0.0782
10,RRIRMRPPRLPRPRPRPKGNPRP,0.0272
11,RRIRLRPPRLPRPRPRPPYMPRP,-0.205
12,RRIRCRPPRLPRPRPRPHVCPRP,0.0221
13,RRIRPRPPRLPRPRPRPFESPRP,0.17
14,RRIRIRPPRLPRPRPRPDDGPRP,-0.184
15,RRIRKRPPRLPRPRPRPEESPRP,0.0563
16,RRIRKRPPRLPRPRPRPQSKPRP,0.116
17,RRIRPRPPRLPRPRPRPSKEPRP,-0.374
18,RRIRFRPPRLPRPRPRPTTQPRP,0.376
19,RRIRQRPPRLPRPRPRPCHCPRP,-0.00822
20,RRIRYRPPRLPRPRPRPFVPPRP,-0.285
21,RRIRHRPPRLPRPRPRPDKKPRP,-0.0244
22,RRIRSRPPRLPRPRPRPKKCPRP,-0.0782
23,RRIRKRPPRLPRPRPRPYAEPRP,-0.0528
24,RRIRGRPPRLPRPRPRPPGPPRP,0.821
25,RRIRARPPRLPRPRPRPQRCPRP,0.256

row,Sequence,shrunken log2 fold change
1,RRIRDRPPRLPRPRPRPRSFPRP,0.429
2,RRIRHRPPRLPRPRPRPTQIPRP,0.51
3,RRIRERPPRLPRPRPRPVTRPRP,-0.0559
4,RRIRCRPPRLPRPRPRPSIMPRP,-0.684
5,RRIRERPPRLPRPRPRPFPSPRP,-0.0393
6,RRIRGRPPRLPRPRPRPKRQPRP,0.377
7,RRIRWRPPRLPRPRPRPCRTPRP,0.112
8,RRIRQRPPRLPRPRPRPGSNPRP,0.127
9,RRIRGRPPRLPRPRPRPEYLPRP,0.468
10,RRIRIRPPRLPRPRPRPMPAPRP,0.0451
11,RRIRKRPPRLPRPRPRPLMDPRP,0.16
12,RRIRTRPPRLPRPRPRPPDLPRP,0.243
13,RRIRDRPPRLPRPRPRPKLFPRP,0.168
14,RRIRGRPPRLPRPRPRPGSFPRP,0.286
15,RRIRRRPPRLPRPRPRPEFDPRP,0.486
16,RRIRVRPPRLPRPRPRPNSVPRP,-0.00107
17,RRIRERPPRLPRPRPRPRKMPRP,-0.0569
18,RRIRGRPPRLPRPRPRPHRWPRP,0.252
19,RRIRGRPPRLPRPRPRPDDCPRP,0.152
20,RRIRTRPPRLPRPRPRPYIRPRP,-1.31
21,RRIRQRPPRLPRPRPRPPKRPRP,0.487
22,RRIRRRPPRLPRPRPRPLYNPRP,-0.295
23,RRIRERPPRLPRPRPRPYGDPRP,-0.218
24,RRIRQRPPRLPRPRPRPTFEPRP,-0.177
25,RRIRRRPPRLPRPRPRPVFLPRP,0.0173

row,Sequence,shrunken log2 fold change
1,RRIRTRPPRLPRPRPRPWRMPRP,-0.139
2,RRIRYRPPRLPRPRPRPTNDPRP,-0.404
3,RRIRGRPPRLPRPRPRPEMHPRP,0.242
4,RRIRCRPPRLPRPRPRPYKPPRP,-0.705
5,RRIRPRPPRLPRPRPRPRQNPRP,0.463
6,RRIRQRPPRLPRPRPRPLELPRP,0.0289
7,RRIRPRPPRLPRPRPRPVKVPRP,0.161
8,RRIRPRPPRLPRPRPRPISNPRP,-0.408
9,RRIRVRPPRLPRPRPRPWFCPRP,-0.299
10,RRIRSRPPRLPRPRPRPSARPRP,0.299
11,RRIRYRPPRLPRPRPRPIFWPRP,0.0187
12,RRIRMRPPRLPRPRPRPQMWPRP,0.635
13,RRIRIRPPRLPRPRPRPHHNPRP,-0.0464
14,RRIRRRPPRLPRPRPRPIGHPRP,0.113
15,RRIRCRPPRLPRPRPRPGVTPRP,-0.175
16,RRIRLRPPRLPRPRPRPSAEPRP,0.342
17,RRIRDRPPRLPRPRPRPFHEPRP,-0.048
18,RRIRKRPPRLPRPRPRPVAVPRP,0.138
19,RRIRCRPPRLPRPRPRPAHKPRP,-0.0944
20,RRIRIRPPRLPRPRPRPSPTPRP,-0.424
21,RRIRKRPPRLPRPRPRPRDRPRP,1.26
22,RRIRPRPPRLPRPRPRPVNPPRP,0.0675
23,RRIRYRPPRLPRPRPRPKGAPRP,0.194
24,RRIRTRPPRLPRPRPRPDGKPRP,-0.41
25,RRIRNRPPRLPRPRPRPEGVPRP,0.205

row,Sequence,shrunken log2 fold change
1,RRIRHRPPRLPRPRPRPKCTPRP,-0.0702
2,RRIRGRPPRLPRPRPRPLEGPRP,0.0436
3,RRIRKRPPRLPRPRPRPTMLPRP,0.131
4,RRIRERPPRLPRPRPRPWGDPRP,0.108
5,RRIRTRPPRLPRPRPRPRAGPRP,0.41
6,RRIRKRPPRLPRPRPRPHESPRP,0.23
7,RRIRDRPPRLPRPRPRPPKFPRP,-0.154
8,RRIRHRPPRLPRPRPRPHGMPRP,-0.000911
9,RRIRARPPRLPRPRPRPQGYPRP,0.119
10,RRIRHRPPRLPRPRPRPTFFPRP,0.0852
11,RRIRFRPPRLPRPRPRPHVTPRP,-0.211
12,RRIRYRPPRLPRPRPRPEKSPRP,-0.0559
13,RRIRHRPPRLPRPRPRPMPHPRP,-0.131
14,RRIRVRPPRLPRPRPRPVQVPRP,-0.269
15,RRIRERPPRLPRPRPRPFVWPRP,-0.0465
16,RRIRYRPPRLPRPRPRPPREPRP,-0.0166
17,RRIRSRPPRLPRPRPRPGHQPRP,-0.167
18,RRIRVRPPRLPRPRPRPAVEPRP,0.565
19,RRIRPRPPRLPRPRPRPQIYPRP,-0.858
20,RRIRERPPRLPRPRPRPKRWPRP,0.35
21,RRIRLRPPRLPRPRPRPLHYPRP,-0.00799
22,RRIRSRPPRLPRPRPRPMNIPRP,-0.196
23,RRIRKRPPRLPRPRPRPMGRPRP,-0.0264
24,RRIRPRPPRLPRPRPRPTDIPRP,-0.241
25,RRIRHRPPRLPRPRPRPAMAPRP,0.126

row,Sequence,shrunken log2 fold change
1,RRIRWRPPRLPRPRPRPAMVPRP,0.483
2,RRIRRRPPRLPRPRPRPTNGPRP,-0.168
3,RRIRTRPPRLPRPRPRPRYKPRP,-0.909
4,RRIRVRPPRLPRPRPRPTKHPRP,-0.135
5,RRIRMRPPRLPRPRPRPNKHPRP,-0.158
6,RRIRFRPPRLPRPRPRPSPDPRP,-0.0261
7,RRIRCRPPRLPRPRPRPWPKPRP,0.0772
8,RRIRFRPPRLPRPRPRPSFEPRP,-0.532
9,RRIRQRPPRLPRPRPRPMSIPRP,-0.00929
10,RRIRPRPPRLPRPRPRPCEQPRP,0.102
11,RRIRKRPPRLPRPRPRPWMSPRP,-0.0718
12,RRIRFRPPRLPRPRPRPWKMPRP,-0.211
13,RRIRWRPPRLPRPRPRPSMTPRP,0.178
14,RRIRRRPPRLPRPRPRPMHVPRP,0.281
15,RRIRMRPPRLPRPRPRPSAYPRP,0.319
16,RRIRKRPPRLPRPRPRPEDTPRP,0.103
17,RRIRFRPPRLPRPRPRPPDDPRP,0.371
18,RRIRQRPPRLPRPRPRPNNLPRP,-0.401
19,RRIRKRPPRLPRPRPRPNRTPRP,-0.0227
20,RRIRNRPPRLPRPRPRPMWHPRP,-0.404
21,RRIRARPPRLPRPRPRPFKIPRP,-0.0575
22,RRIRYRPPRLPRPRPRPESSPRP,-0.0327
23,RRIRDRPPRLPRPRPRPGYDPRP,0.0286
24,RRIRVRPPRLPRPRPRPMYEPRP,-0.774
25,RRIRHRPPRLPRPRPRPDCDPRP,-0.243
